Results: the Immune Epitope Database (IEDB)

These sequences were tested against HLA-B*39:06 (assay: IEDB peptide-MHC binding, purified MHC/competitive/radioactivity; ≥ and ≤ were set here for values at or beyond the usual limits of such assays). Settings: source organism: Homo sapiens.

Sequence	IC50
TQRLIRESA	11 nM
GRSIAFHSA	40 nM
NRYDGIYKV	371 nM
NRVMLPKAA	2.7 nM
TFDVAPSRL	353 nM
THNYGIGAA	15 nM
DHHLPPPAA	72 nM
FRYQGHVGA	1.7 nM
ARFTGIKTA	6 nM
ERFYGKYTA	9.2 nM
YYDEKVVKL	3730 nM
HRLEGLREA	9.6 nM
NHINVELSL	27900 nM
ERMKLVVQA	15 nM
SRYLGKITA	8.1 nM
LQHPFVRSA	7.7 nM
YHDIKRITA	17 nM
IEHDVVMKA	137 nM
TRYQIPKEV	450 nM

Same assay, conditions: source organism: Mus musculus

Sequence	IC50
INSEMFLRS	≥ 77000 nM
EAFEHTPGV	≥ 77000 nM
IHIDSTPFA	2200 nM
MALWMRFLP	11900 nM
TNVFLFLFA	68800 nM
LVAEAFEHT	≥ 76100 nM
EHTPGVHMA	1210 nM
YRFIKIPTH	1350 nM

The sequences below were run against HLA-B*38:01 in the same assay as above. Settings: source organism: Human immunodeficiency virus 1.

Sequence	IC50
KRHKEFALF	1100 nM
KTQKEYALF	40600 nM
WHLGQGVSI	10 nM
MHEDIISLW	53 nM
KMQKEHALF	12100 nM
GHQAAMQML	1020 nM

Same assay, conditions: source organism: Simian immunodeficiency virus

Sequence	IC50
THTNGVRLL	617 nM
VPSLQYLAL	1530 nM
WLFSNCRTL	993 nM
FRQYTAFTL	17 nM
DRFGLAESL	30 nM
THIQQDPAL	148 nM
NETWYSADL	3920 nM
IHGQANSDL	2360 nM
NHLPRELIF	1120 nM
DHQAAMQII	125 nM

Same assay, conditions: source organism: Vaccinia virus

Sequence	IC50
IHIPGDTLF	11 nM

Same assay, conditions: source organism: Variola virus

Sequence	IC50
YKEPNSIIL	4730 nM
RHDITGFIL	6.4 nM
